Results from patent US9658208B2, “Methods and G proteins for screening and identifying ligands of G protein-coupled receptors” (Fred Hutchinson Cancer Research Center, priority 2011, dated 2017).

How the values were obtained:
[1] = target: T1, M2 muscarinic acetylcholine receptor (M2AchR) (Rattus norvegicus, UniProt P10980); assay: CRE-SEAP reporter gene assay, coupling of Gαs-based chimeric G proteins with M2AchR (transient); assay type: cell-based; conditions: HEK-293 cells; 10 uM acetylcholine
T1 construct: expressed in transfected cells; host or cells: HEK-293
T1 sequence (P10980 1-466): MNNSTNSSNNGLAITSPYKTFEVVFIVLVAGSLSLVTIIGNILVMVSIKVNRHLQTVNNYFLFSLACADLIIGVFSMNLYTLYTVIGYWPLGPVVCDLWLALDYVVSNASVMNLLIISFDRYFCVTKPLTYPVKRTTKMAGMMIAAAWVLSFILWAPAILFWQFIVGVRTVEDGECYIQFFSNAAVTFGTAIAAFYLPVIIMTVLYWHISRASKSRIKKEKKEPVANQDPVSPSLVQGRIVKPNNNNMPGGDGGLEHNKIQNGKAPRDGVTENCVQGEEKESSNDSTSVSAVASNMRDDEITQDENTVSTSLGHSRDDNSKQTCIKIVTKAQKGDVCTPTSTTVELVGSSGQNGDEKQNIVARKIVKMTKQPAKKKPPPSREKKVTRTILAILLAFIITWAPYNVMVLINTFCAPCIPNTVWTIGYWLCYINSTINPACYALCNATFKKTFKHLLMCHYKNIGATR
Method: The constructs encoding chimeric G proteins were made by substituting C-terminal amino acids of Gαs (SEQ ID NO: 1) with the corresponding C-terminal amino acid sequences of other Gα subunits. A first set of Gαs-based chimeric G proteins was prepared by designing constructs encoding seven Gαs-Gαi chimeras in which the C-terminal 5, 11, 13, 28, 65, 84, or 131 amino acids of Gαs were substituted with the corresponding C-terminal amino acids from the […]. Briefly, HEK-293 cells were cotransfected with chimera constructs together with the CRE-SEAP reporter gene construct and a cDNA encoding the M2 muscarinic acetylcholine receptor (M2AchR), a GPCR that couples to Gαo but not to Gαs and inhibits cAMP production. The transfected cells were cultured in the presence or absence of acetylcholine and then assayed for SEAP activity.
A series of chimeric constructs were prepared in which the final 13 C-terminal amino acids of the Gαs subunit were substituted with the final 13 C-terminal amino acids from Gαo, Gαz, Gαt, Gαq, or Gα15 subunits. Also tested were the Gαs-Gαi-13 and a chimera containing the last 5 C-terminal amino acids of Gαk (Gαs-Gαk-5 (SEQ ID NO: 2)). These chimeric constructs were tested for coupling with M2AchR. […] The Gαs-Gαo-13 (SEQ ID NO: […]) and Gαs-Gα15-13 (SEQ ID NO: 7) allowed approximately 2-fold increases in SEAP activity.
Chimeric G protein cloning: An insert containing rat Gαs cDNA was cut out using the restriction enzymes SaII and HinDIII, and ligated into pcDNA3.1(−) cut with XhoI and HinDIII. The chimeric G proteins with the desired C-terminal amino acid substitutions were prepared by PCR using Gαs as a template. More specifically, Gαs was PCR amplified between an internal EcoRI site and the stop codon, with a 3′ HinDIII placed immediately after the stop codon. A different 3′ oligonucleotide was used for each Gαs chimera and contained a 39 bp sequence that encoded the substituted amino acids at the C-terminus selected from the donor Gα subunit.
M2AchR GPCR cloning: Rat M2AchR receptor was cloned by PCR from cDNA templates (ATCC) and ligated into pcDNA 3.1(−) for expression in mammalian cells.
CRE-SEAP Reporter Gene Assay: 0.5×10^5 HEK-293 cells (ATCC) were seeded into each well of a 96 well plate 24 hours prior to transfection. cDNAs encoding M2AchR, SEAP reporters (Mercury Pathway Profiling System, BD Biosciences), and G protein chimeras were transfected into HEK-293 cells using lipofectamine reagent (Invitrogen) according to the manufacturer's protocols. […]
(§1) Following transfection, the cells were maintained for 48 hours in 200 ul serum free media containing 10 uM acetylcholine (Sigma). […] Fluorescence was then measured using a CytoFluor 4000 multi well plate reader (Applied Biosystems).

M2AchR = target: T2, M2AchR (Rattus norvegicus, UniProt P10980); assay: CRE-SEAP reporter gene assay, stably versus transiently expressed chimeric G proteins; assay type: cell-based; conditions: cells transiently expressing the chimera construct, 10 uM acetylcholine
T2 construct: expressed in transfected cells; host or cells: HEK-293 (chimera stably or transiently expressed; M2AchR transiently transfected)
T2 sequence (P10980 1-466): T1 sequence (P10980 1-466)
Method: The ligand-induced SEAP activity for cells stably transfected and expressing Gαs-based chimeric G proteins was compared with that of cells transiently expressing Gαs-based chimeric G proteins. Stable expression is achieved by integration of the construct of interest into the target cell's chromosome. Cell lines were prepared that stably expressed Gαs-Gαt-13, Gαs-Gαi-13, and Gαs-Gαo-13 G protein chimeras. […] Therefore, cell lines stably expressing the Gαs-based chimeric G proteins can provide enhanced sensitivity for the screening and identification of GPCR ligands.
Preparation of cells stably expressing G protein chimeras: HEK-293 cells were transfected with each of the G protein chimeras of interest. Following transfection, the cells were split and diluted in media containing 0.7 mg/ml neomycin (Gibco). Cells were grown until clones could be picked. At least 25 clones from each of the stables were picked, and tested for their suitability as sensor cell lines, by transfecting them with CRE-SEAP and cDNA encoding the M2AchR receptor. Those stables that elicited the maximal signal to noise following activation of the GPCRs were chosen and maintained. […]
as §1

B1: Gαs-Gαt-13: Gαs-based chimeric G protein, final 13 C-terminal amino acids substituted with those of Gαt (protein)
chain: MGCLGNSKTEDQRNEEKAQREANKKIEKQLQKDKQVYRATHRLLLLGAGESGKSTIVKQMRILHVNGFNGEGGEEDVPDYASNSDGEKATKVQDIKNNLKEAIETIVAAMSNLVPPVELANPENQFRVDYILSVMNVPNFDFPPEFYEHAKALWEDEGVRACYERSNEYQLIDCAQYFLDKIDVIKQADYVPSDQDLLRCRVLTSGIFETKFQVDKVNFHMFDVGGQRDERRKWIQCFNDVTAIIFVVASSSYNMVIREDNQTNRLQEALNLFKSIWNNRWLRTISVILFLNKQDLLAEKVLAGKSKIEDYFPEFARYTTPEDATPEPGEDPRVTRAKYFIRDEFLRISTASGDGRHYCYPHFTCAVDTENIRRVFNDCRDIIIKENLKDCGLF
modifications: Chimeric protein
notes: Gαs-based chimeric G protein, final 13 C-terminal amino acids substituted with those of Gαt
[1]
  ligand induced increases in SEAP activity mediated by M2AchR (in words): highest responses
M2AchR
  increase in SEAP activity: approximately 10 fold
